Results: patent US9624471B2, “Methods for maturing cardiomyocytes and uses thereof” (UNIVERSITY OF WASHINGTON THROUGH ITS CENTER FOR …, priority 2013, dated 2017)

B1: let-7g: human let-7 family miRNA, SEQ ID NO: 9, overexpressed from pLKO lentiviral pri-miR-let-7g construct (nucleic acid, listed as Homo sapiens)
chain: AGGCUGAGGUAGUAGUUUGUACAGUUUGAGGGUCUAUGAUACCACCCGGUACAGGAGAUAACUGUACAGGCCACUGCCUUGCCA
B2: let-7i: human let-7 family miRNA, SEQ ID NO: 10, overexpressed from pLKO lentiviral pri-miR-let-7i construct (nucleic acid, listed as Homo sapiens)
chain: CUGGCUGAGGUAGUAGUUUGUGCUGUUGGUCGGGUUGUGACAUUGCCCGCUGUGGAGAUAACUGCGCAAGCUACUGCCUUGCUA

How the values were obtained:
IMR90 iPSC-CMs = experiment: let-7 over-expression in IMR90 iPSC derived cardiomyocytes, qPCR; format: cell-based; details: for let-7 over expression relative to empty vector (EV) control: pLKO-lentiviral OE for up to 2 weeks; for cardiomyocyte maturation markers expression / let-7 targets (lin28 and HMGA2) expression: qPCR
Source text: FIGS. 19A-19B show let-7 over-expression (OE) in IMR90 iPSC derived cardiomyocytes (IMR90 iPSC-CMs). A pLKO-lentiviral based system was used to overexpress let-7g and let-7i in IMR90-iPSC-CMs for up to 2 weeks. […] Experiments were validated with 3 biological and 3 technical replicates. FIG. 19B qPCR validated the down-regulation of let-7 targets (lin28 and HMGA2) and upregulation of cardiomyocyte maturation markers in let-7i OE and let-7g OE CMs.
Total RNAs were extracted with miRNeasy™ mini kit (QIAGEN™) or using TRIZOL™ (INVITROGEN™). RNA was DNAse treated with DNA-free kit (AMBION™). miR-let-7g and mir-let-7i taqman assays (APPLIED BIOSYSTEMS) were used for miRNAqPCRs following the manufacturer's protocol using RNU66 snoRNA as a loading control. For mRNA qPCR, reverse transcription reaction was carried out using Omniscript™ RT kit (QIAGEN™). Primers for CTNT, MYH7, RYR2, SERCA2 and GJA1 were based on Tulloch et a1^2. Primers for HCN4, KCNJ2, SCN5A, HMGA1, HMGA2, IRS2, INSR, LIN28, SLC27A6 and FABP2, CD36, PPARA, TRIM71, EGR1, CDKN1A were purchased from Real Time Primers. qPCR was performed using SYBR green chemistry and ABI 7300 Real time PCR system. Samples were normalized using GAPDH as a house keeping gene.

hESCs-CMs = experiment: Contractile force and beat frequency measurement on arrays of microposts; format: cell-based, human; details: let-7 OE CMs; for beat frequency: EV control 1.57±0.1 hz; for average twitch force: EV control 7.77±0.7 nN/cell, P<0.001
Procedure: Arrays of silicone microposts were fabricated out of polydimethylsiloxane (PDMS) via a previously-described double-casting process using soft lithography from a SU8 master^19. Each micropost within the arrays used for these studies was 6.45 μm in height, 2.3 μm in diameter, and the center to center spacing between adjacent posts was 6 μm. Prior to cell seeding, the tips of these microposts were stamped with 50 μg/ml of mouse laminin (LIFE TECHNOLOGIES™), and the remaining surfaces of the array were fluorescently stained with BSA 594 and blocked with 0.2% Pluronic F-127 (in PBS)^20. CMs that were 1 week post pLKO-let-7 OE or EV lentiviral transfection, were seeded onto these arrays at a density of around 800,000 cells per substrate.
One week following cell seeding, muscle twitches from individual hESCs-CMs were recorded with high-speed video microscopy within a live cell chamber at 37° C. These images were acquired using a NIKON™ Ti-E upright microscope with a 60× water-immersion objective and a Hammamatsu ORCA™ camera. A custom MATLAB™ code was then used to compare each time frame of this video, to a reference fluorescent image, taken at the base plane of the posts. The twitch force at each post was subsequently calculated by multiplying the deflection of the post by the post's bending stiffness (38 nN/μm). The total twitch force produced by the cell was then determined by adding together the twitch force measured at each post beneath the cell. The average spontaneous beating frequency of the cells was determined by locating the time at which each beat reaches a maximum in the total twitch force (using the same MATLAB™ code), calculating the frequency between each sequential beat: 1/(time at which second beat occurs—time at which first beat occurs), and then averaging these frequencies across all of the measured twitch events.

let-7 OE CMs = experiment: Mitochondrial DNA copy number by qPCR (mtCol normalized to GAPDH); format: cell-based, human; details: let-7 OE vs. EV control
Source text: FIGS. 5A-5G Let-7 over expression results in down-regulation of PI3/AKT/Insulin pathway and up-regulation of FA metabolism. Comparisons were done between let-7OE and EV control for all assays (FIG. 5A) Density plots using R generated with fold change expression (let-7g OE/EV) of genes for FA metabolism and PI3/AKT/Insulin signaling. (FIG. 5B) qPCR analysis of candidate let-7 targets of the insulin pathway and genes from the FA metabolism. (FIG. 5C) Representative OCR profile in response to ATP synthase inhibitor oligomycin, uncoupler of electron transport and oxidative phosphorylation, FCCP and electron transport chain blockers rotenone and antimycin during mito-stress assay. (FIG. 5D) Quantification of maximal respiration capacity, i.e., changes in response to FCCP treatment after inhibition of ATP synthase by oligomycin. n=24 from 3 biological replicates. (FIG. 5E) mitochondrial DNA copy number was determined by measuring the ratio of MtDNA to genomic DNA using primers specific for mitochondrial DNA gene, Col (mtCol) and normalizing to chromosomal gene GAPDH. (FIG. 5F) Representative OCR trace of let-7g OE cardiomyocytes for fatty acid stress measuring Etomixir (ETO) responsive OCR changes after palmitate addition. (FIG. 5G) Quantification of changes in OCR in response to ETO. n=32 from 3 biological replicates. […]

| Molecule | let-7 over expression relative to empty vector (EV) control (IMR90 iPSC-CMs) | cardiomyocyte maturation markers expression (IMR90 iPSC-CMs) | let-7 targets (lin28 and HMGA2) expression (IMR90 iPSC-CMs) | beat frequency (hESCs-CMs) | average twitch force (hESCs-CMs) | mitochondrial genome copy number (let-7 OE CMs) |
| --- | --- | --- | --- | --- | --- | --- |
| B1 | ≤ 10 fold | upregulation | down-regulation | 0.92±0.094 hz | 9.28±0.7 nN/cell | without affecting |
| B2 | up to 8 fold | upregulation | down-regulation | 1.05±0.1 hz | 11.32±0.86 nN/cell | without affecting |
